Measurements reported in PMC3104014 (The Biochemical journal, 2010).

Biological target: the molecule itself
Assay: SEC-MALS

B1: rat RNF4 RING domain (residues 124-194) (domain or fragment, UniProt O88846 124-194, looked up)
chain: GTTGLRPSGTVSCPICMDGYSEIVQNGRLIVSTECGHVFCSQCLRDSLKNANTCPTCRKKINHKRYHPIYI
With B1 the “stoichiometry N” value was 2.
